From patent US20070020283A1 (Regeneron, published 2007)
Substitutions are numbered along the chain they refer to. Names may count otherwise.

B1: hIFNγRβ(C174S).SG.hFc (Fc fusion)
chain: SQLPAPQHPKIRLYNAEQVLSWEPVALSNSTRPVVYQVQFKYTDSKWFTADIMSIGVNCTQITATECDFTAASPSAGFPMDFNVTLRLRAELGALHSAWVTMPWFQHYRNVTVGPPENIEVTPGEGSLIIRFSSPFDIADTSTAFFSYYVHYWEKGGIQQVKGPFRSNSISLDNLKPSRVYCLQVQAQLLWNKSNIFRVGHLSNISCYETMADASTELQSG
notes: also called pCTR 2848; not shown: hinge, CH2 and CH3 regions of human IgG1 (hFc)
B2: hIFNγRα(1-239).SG.hFc (Fc fusion, not shown: a dimerising Fc or GST)
chain: EMGTADLGPSSVPTPTNVTIESYNMNPIVYWEYQIMPQVPVFTVEVKNYGVKNSEWIDACINISHHYCNISDHVGDPSNSLWVRVKARVGQKESAYAKSEEFAVCRDGKIGPPKLDIRKEEKQIMIDIFHPSVFVNGDEQEVDYDPETTCYIRVYNVYVRMNGSEIQYKILTQKEDDCDEIQCQLAIPVSSLNSQYCVSAEGVLHVWGVTTEKSKEVCITIFSG
B3: hIFNγRα(1-239).TG.hFc.ARA.hIFNγRβ (Fc fusion, not shown: a dimerising Fc or GST)
chain (part 1 of 2): B2 chain with S223T
chain (part 2 of 2): ARASQLPAPQHPKIRLYNAEQVLSWEPVALSNSTRPVVYQVQFKYTDSKWFTADIMSIGVNCTQITATECDFTAASPSAGFPMDFNVTLRLRAELGALHSAWVTMPWFQHYRNVTVGPPENIEVTPGEGSLIIRFSSPFDIADTSTAFFCYYVHYWEKGGIQQVKGPFRSNSISLDNLKPSRVYCLQVQAQLLWNKSNIFRVGHLSNISCYETMADASTELQ
B4: human interferon γ (ligand, UniProt P01579 24-166, looked up)
chain: QDPYVKEAENLKKYFNAGHSDVADNGTLFLGILKNWKEESDRKIMQSQIVSFYFKLFKNFKDDQSIQKSVETIKEDMNVKFFNSNKKKRDDFEKLTNYSVTDLNVQRKAIHELIQVMAELSPAAKTGKRKRSQMLFRGRRASQ
notes: Injected in solution over captured fusion proteins (BiaCore); Recombinant human IFNγ at 4 pM in the luciferase bioassays; also called IFNγ; human IFNγ
B5: hIFNγRβ.TG.hIFNγRα(1-239).SG.hFc (Fc fusion)
chain: SQLPAPQHPKIRLYNAEQVLSWEPVALSNSTRPVVYQVQFKYTDSKWFTADIMSIGVNCTQITATECDFTAASPSAGFPMDFNVTLRLRAELGALHSAWVTMPWFQHYRNVTVGPPENIEVTPGEGSLIIRFSSPFDIADTSTAFFCYYVHYWEKGGIQQVKGPFRSNSISLDNLKPSRVYCLQVQAQLLWNKSNIFRVGHLSNISCYETMADASTELQTGMALLFLLPLVMQGVSRAEMGTADLGPSSVPTPTNVTIESYNMNPIVYWEYQIMPQVPVFTVEVKNYGVKNSEWIDACINISHHYCNISDHVGDPSNSLWVRVKARVGQKESAYAKSEEFAVCRDGKIGPPKLDIRKEEKQIMIDIFHPSVFVNGDEQEVDYDPETTCYIRVYNVYVRMNGSEIQYKILTQKEDDCDEIQCQLAIPVSSLNSQYCVSAEGVLHVWGVTTEKSKEVCITIFSG
notes: PCTR number 2843 is printed for two different constructs (r17 and r19); also called pCTR 2843; R2-R1-Fc; not shown: hinge, CH2 and CH3 regions of human IgG1 (hFc)

Legend:
human interferon γ [1] = biological target: B4; assay: BiaCore, fusion captured by anti-human Fc, human IFNγ injected
Method: (§1) The affinity of the interferon γ-binding fusion polypeptides for human interferon γ was measured using a BlAcore 2000™ or BlAcore 3000™, as described in WO 00/75319, herein specifically incorporated by reference in its entirety. Briefly, the IFNγ-specific polypeptides were produce as small-scale supernatants by transiently transfecting CHO cells, using Lipofectamine/LIPO Plus® (Life Technologies), with DNA constructs encoding the proteins. Supernatants were collected after 72 hours and protein expression was measured by Western blotting with anti-human Fc HRP-conjugated antibody (Promega) and visualized by ECL (Pierce). Briefly, 5.4×10⁵ CHOK1 cells per well of a 6 well tissue culture dish were transfected using 1 μg of DNA and 5 μl of lipofectamine in OptiMEM™ (Gibco). After 12 h the cells were washed with OptiMEM™ and 2 ml of CHO serum free medium (Gibco) was added. After 60 h and 72 h the media was collected and centrifuged to remove cellular debris. For the BiaCore™ analysis, the IFNγ-binding fusion polypeptides from the transiently transfected CHO supernatants were captured onto the chip surface using anti-human Fc antibodies. Various concentrations of human IFNγ are injected over the surface and the time course of association and dissociation are monitored. Kinetic analyses using BIA evaluation software were performed to obtain the association and dissociation rate constants.

human interferon γ [2] = biological target: B4; assay: cell-based or functional assay
hIFNγRα(1-239).SG.hFc = biological target: B2; assay: BiaCore (SPR), fusion from CHO supernatant captured by anti-human Fc, human IFNγ injected
Method: as §1

[3] = biological target: B3; assay: BiaCore (SPR), fusion captured by anti-human Fc, human IFNγ injected; R1-Fc-R2 configuration
Method: as §1

hIFNγRβ.SG.hFc = biological target: T1, hIFNγRβ.SG.hFc (human, UniProt P38484 28-246); assay: BiaCore, fusion captured by anti-human Fc, human IFNγ injected
T1 construct: also called pCTR 2828; not shown: hinge, CH2 and CH3 regions of human IgG1 (hFc)
T1 sequence: B1 chain with S147C
Method: as §1

human interferon γ [4] = biological target: B4; assay: BiaCore (SPR), fusion captured by anti-human Fc, human IFNγ injected; R2-R1-Fc configuration
Method: as §1

Row | Binder | IC50 (M), GAS-luciferase bioassay in HEK293 cells (human interferon γ [2]) [M] | IC50 (M), ISRE-luciferase bioassay in HEK293 cells (human interferon γ [2]) [M] | further results
1 | B1 |  |  | binding result (human interferon γ [1]): no binding
2 | B2 | 7.9e-09 | 6.2e-09 | 
3 | B3 | 1.6e-08 | 8e-07 | 
4 | B4 |  |  | Kd (hIFNγRα(1-239).SG.hFc): 6 nM; Kd [3]: > 10 nM; binding result (hIFNγRβ.SG.hFc): no binding
5 | B5 | 9.8e-09 | 1.46e-08 | Kd (human interferon γ [4]): > 10 nM
